In patent publication US20220411483A1 (Chugai, published 2022):

T1: FcγRIIa R type extracellular domain, His tag (human, UniProt P12318 34-217)
T1 construct: extracellular domain; also called FcgRIIaR
T1 sequence (looked up): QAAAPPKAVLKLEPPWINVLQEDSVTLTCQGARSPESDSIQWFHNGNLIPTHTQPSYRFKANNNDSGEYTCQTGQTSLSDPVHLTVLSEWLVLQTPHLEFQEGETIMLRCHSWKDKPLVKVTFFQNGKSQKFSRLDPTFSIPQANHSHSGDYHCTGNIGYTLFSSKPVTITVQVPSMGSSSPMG

T2: FcγRIIa H type extracellular domain, His tag (human, UniProt P12318 34-217)
T2 construct: extracellular domain; also called FcgRIIaH
T2 sequence (looked up): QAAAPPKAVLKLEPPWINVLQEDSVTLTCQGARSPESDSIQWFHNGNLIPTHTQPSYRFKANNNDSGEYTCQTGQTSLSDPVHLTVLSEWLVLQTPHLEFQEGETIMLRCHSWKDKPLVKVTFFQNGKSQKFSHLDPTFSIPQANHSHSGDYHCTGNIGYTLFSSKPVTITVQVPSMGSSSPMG

T3: FcγRIIb extracellular domain, His tag (human, UniProt P31994 43-217)
T3 construct: extracellular domain; also called FcgRIIb
T3 sequence (looked up): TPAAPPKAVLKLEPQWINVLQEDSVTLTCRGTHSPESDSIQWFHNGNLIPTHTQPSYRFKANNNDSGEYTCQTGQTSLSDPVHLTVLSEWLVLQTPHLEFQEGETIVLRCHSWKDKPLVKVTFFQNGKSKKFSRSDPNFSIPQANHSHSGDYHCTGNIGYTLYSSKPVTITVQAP

T4: FcγRIIa R type extracellular domain with C-terminal His tag (human, UniProt P12318 34-217)
T4 construct: extracellular domain; also called FcgRIIaR; not shown: His tag at the C terminus
T4 sequence (looked up): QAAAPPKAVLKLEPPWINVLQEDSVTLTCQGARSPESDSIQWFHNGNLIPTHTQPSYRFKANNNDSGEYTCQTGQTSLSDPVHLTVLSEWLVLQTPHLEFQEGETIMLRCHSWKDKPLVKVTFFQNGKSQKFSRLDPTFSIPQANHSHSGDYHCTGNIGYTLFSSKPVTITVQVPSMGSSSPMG

T5: FcγRIIb extracellular domain with C-terminal His tag (human, UniProt P31994 43-217)
T5 construct: extracellular domain; also called FcgRIIb; not shown: His tag at the C terminus
T5 sequence (looked up): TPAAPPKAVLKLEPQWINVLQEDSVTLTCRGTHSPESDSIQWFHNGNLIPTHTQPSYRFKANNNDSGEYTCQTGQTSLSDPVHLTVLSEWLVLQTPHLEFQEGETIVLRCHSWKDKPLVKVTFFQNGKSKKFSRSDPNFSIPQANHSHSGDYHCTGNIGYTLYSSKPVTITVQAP


What was measured:
[1] = molecular target: T6, FcγRIa extracellular domain, His tag (human, UniProt P12314 16-292); assay: SPR, KD ratio
T6 construct: whole entry named; also called FcgRIa
T6 sequence (P12314 16-292): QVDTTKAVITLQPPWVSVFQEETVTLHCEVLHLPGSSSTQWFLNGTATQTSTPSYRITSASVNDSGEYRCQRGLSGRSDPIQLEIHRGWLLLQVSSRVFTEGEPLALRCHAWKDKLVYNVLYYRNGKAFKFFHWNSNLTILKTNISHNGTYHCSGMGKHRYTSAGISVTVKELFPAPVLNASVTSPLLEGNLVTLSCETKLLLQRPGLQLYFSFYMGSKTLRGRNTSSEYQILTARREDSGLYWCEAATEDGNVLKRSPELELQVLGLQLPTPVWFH

[2] = molecular target: T1, FcγRIIa R type extracellular domain, …; assay: SPR, KD ratio
[3] = molecular target: T2, FcγRIIa H type extracellular domain, …; assay: SPR, KD ratio
[4] = molecular target: T3, FcγRIIb extracellular domain, His tag; assay: SPR, KD ratio
[5] = molecular target: T7, FcγRIIIa V type extracellular domain, His tag (human, UniProt P08637 17-208); assay: SPR, KD ratio
T7 construct: extracellular domain; also called FcgRIIIaV
T7 sequence (P08637 17-208 F176V): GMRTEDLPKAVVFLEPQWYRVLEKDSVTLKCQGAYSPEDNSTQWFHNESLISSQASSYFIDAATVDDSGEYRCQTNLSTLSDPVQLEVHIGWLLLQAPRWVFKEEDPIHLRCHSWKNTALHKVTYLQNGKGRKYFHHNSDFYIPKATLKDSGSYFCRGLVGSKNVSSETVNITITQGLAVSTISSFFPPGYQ

[6] = molecular target: T1, FcγRIIa R type extracellular domain, …; assay: SPR, bound amount per captured antibody
[7] = molecular target: T3, FcγRIIb extracellular domain, His tag; assay: SPR, bound amount per captured antibody
[8] = molecular target: T8, FcγRIa extracellular domain with C-terminal His tag (human, UniProt P12314 16-292); assay: SPR, antibody captured, FcgR analyte
T8 construct: also called FcgRIa; CD64; not shown: His tag at the C terminus
T8 sequence (P12314 16-292): as the sequence (P12314 16-292) above

[9] = molecular target: T4, FcγRIIa R type extracellular domain …; assay: SPR, antibody captured, FcgR analyte
[10] = molecular target: T5, FcγRIIb extracellular domain with …; assay: SPR, antibody captured, FcgR analyte
[11] = molecular target: T4, FcγRIIa R type extracellular domain …; assay: SPR; KD of IL6R-B3/IL6R-L divided by KD of variant
[12] = molecular target: T5, FcγRIIb extracellular domain with …; assay: SPR; KD of IL6R-B3/IL6R-L divided by KD of variant

| Binder | Relative FcgRIa-binding Activity [1] | Relative FcgRIIaR-binding Activity [2] | Relative FcgRIIaH-binding Activity [3] | Relative FcgRIIb-binding Activity [4] | Relative FcgRIIIaV-binding Activity [5] | Relative FcgRIIaR-binding Activity [6] | Relative FcgRIIb-binding Activity [7] | Kd [8] [nM] | Kd [9] [nM] | Kd [10] [nM] | Relative FcgRIIaR-binding Activity [11] | Relative FcgRIIb-binding Activity [12] |
| --- | --- | --- | --- | --- | --- | --- | --- | --- | --- | --- | --- | --- |
| IL6R-P591/IL6R-L (antibody, human IgG1, kappa) heavy: QVQLQESGPGLVKPSETLSLTCAVSGHSISHDHAWSWVRQPPGEGLEWIGFISYSGITNYNPSLQGRVTISRDNSKNTLYLQMNSLRAEDTAVYYCARSLARTTAMDYWGEGTLVTVSSASTKGPSVFPLAPSSKSTSGGTAALGCLVKDYFPEPVTVSWNSGALTSGVHTFPAVLQSSGLYSLSSVVTVPSSSLGTQTYICNVNHKPSNTKVDKKVEPKSCDKTHTCPPCPAPELLGGDSVMLFPPKPKDTLMISRTPEVTCVVVDVSHEDPEVKFNWYVDGVEVHNAKTKPREEQENSTYRVVSVLTVLHQDWLNGKEYKCKVSNKALPAPIEKTISKAKGQPREPQVYTLPPSRDELTKNQVSLTCLVKGFYPSDIAVEWESNGQPENNYKTTPPVLDSDGSFFLYSKLTVDKSRWQQGNVFSCSVMHEALHNHYTQKSLSLSP light: not shown | 0.0138 fold of IL6R-G1d/IL6R-L | 0.034 fold of IL6R-G1d/IL6R-L | 0.011 fold of IL6R-G1d/IL6R-L | 1.65 fold of IL6R-G1d/IL6R-L | 0.008 fold of IL6R-G1d/IL6R-L | 20 % of IL6R-G1d/IL6R-L | 131 % of IL6R-G1d/IL6R-L |  |  |  |  |  |
| IL6R-BP568/IL6R-L (antibody, human IgG1, kappa, name in EU numbering, human IgG1) heavy: QVQLQESGPGLVKPSETLSLTCAVSGHSISHDHAWSWVRQPPGEGLEWIGFISYSGITNYNPSLQGRVTISRDNSKNTLYLQMNSLRAEDTAVYYCARSLARTTAMDYWGEGTLVTVSSASTKGPSVFPLAPSSKSTSGGTAALGCLVKDYFPEPVTVSWNSGALTSGVHTFPAVLQSSGLYSLSSVVTVPSSSLGTQTYICNVNHKPSNTKVDKKVEPKSCDKTHTCPPCPAPDLLGGDSVFLFPPKPKDTLMISRTPEVTCVVIDVAEEDGEVKFNWYVDGVEVHNAKTKPREEQYNSTYRVVSVLTVLHQDWLNGKEYKCKVSNKALPAPIEKTISKAKGQPREPQVYTLPPSRDELTKNQVSLTCLVKGFYPSDIAVEWESNGQPENNYKTTPPVLDSDGSFFLYSKLTVDKSRWQQGNVFSCSVMHEALHNHYTQESLSLSP light: not shown |  |  |  |  |  |  |  | 0.19 | 680 | 15 | 1.6 | 210 |
| IL6R-BP567/IL6R-L (antibody, human IgG1, kappa, name in EU numbering, human IgG1) heavy: QVQLQESGPGLVKPSETLSLTCAVSGHSISHDHAWSWVRQPPGEGLEWIGFISYSGITNYNPSLQGRVTISRDNSKNTLYLQMNSLRAEDTAVYYCARSLARTTAMDYWGEGTLVTVSSASTKGPSVFPLAPSSKSTSGGTAALGCLVKDYFPEPVTVSWNSGALTSGVHTFPAVLQSSGLYSLSSVVTVPSSSLGTQTYICNVNHKPSNTKVDKKVEPKSCDKTHTCPPCPAPDLLGGDSVFLFPPKPKDTLMISRTPEVTCVVIDVAEEDGEVKFNWYVDGVEVHNAKTKPREEQDNSTYRVVSVLTVLHQDWLNGKEYKCKVSNKALPAPIEKTISKAKGQPREPQVYTLPPSRDELTKNQVSLTCLVKGFYPSDIAVEWESNGQPENNYKTTPPVLDSDGSFFLYSKLTVDKSRWQQGNVFSCSVMHEALHNHYTQESLSLSP light: not shown |  |  |  |  |  |  |  | 0.21 | 890 | 14 | 1.2 | 224 |

Second part, the binder after the results:

| Relative FcgRIa-binding Activity [1] | Relative FcgRIIaR-binding Activity [2] | Relative FcgRIIaH-binding Activity [3] | Relative FcgRIIb-binding Activity [4] | Relative FcgRIIIaV-binding Activity [5] | Relative FcgRIIaR-binding Activity [6] | Relative FcgRIIb-binding Activity [7] | Kd [8] [nM] | Kd [9] [nM] | Kd [10] [nM] | Relative FcgRIIaR-binding Activity [11] | Relative FcgRIIb-binding Activity [12] | Binder |
| --- | --- | --- | --- | --- | --- | --- | --- | --- | --- | --- | --- | --- |
|  |  |  |  |  | 11.2 % of IL6R-G1d/IL6R-L | 73.3 % of IL6R-G1d/IL6R-L |  |  |  |  |  | IL6R-P662/IL6R-L (antibody, human IgG1, kappa) heavy: QVQLQESGPGLVKPSETLSLTCAVSGHSISHDHAWSWVRQPPGEGLEWIGFISYSGITNYNPSLQGRVTISRDNSKNTLYLQMNSLRAEDTAVYYCARSLARTTAMDYWGEGTLVTVSSASTKGPSVFPLAPSSKSTSGGTAALGCLVKDYFPEPVTVSWNSGALTSGVHTFPAVLQSSGLYSLSSVVTVPSSSLGTQTYICNVNHKPSNTKVDKKVEPKSCDKTHTCPPCPAPELLGGDSVFLFPPKPKDTLMISRTPEVTCVVVDVSHEDPEVKFNWYVDGVEVHNAKTKPREEQDNATYRVVSVLTVLHQDWLNGKEYKCKVNNKALPAPIEKTISKAKGQPREPQVYTLPPSRDELTKNQVSLTCLVKGFYPSDIAVEWESNGQPENNYKTTPPVLDSDGSFFLYSKLTVDKSRWQQGNVFSCSVMHEALHNHYTQKSLSLSP light: not shown |
| 0.015 fold of IL6R-G1d/IL6R-L | 0.026 fold of IL6R-G1d/IL6R-L | 0.009 fold of IL6R-G1d/IL6R-L | 1.9 fold of IL6R-G1d/IL6R-L | 0.004 fold of IL6R-G1d/IL6R-L | 16.9 % of IL6R-G1d/IL6R-L | 130 % of IL6R-G1d/IL6R-L |  |  |  |  |  | IL6R-P603/IL6R-L (antibody, human IgG1, kappa) heavy: QVQLQESGPGLVKPSETLSLTCAVSGHSISHDHAWSWVRQPPGEGLEWIGFISYSGITNYNPSLQGRVTISRDNSKNTLYLQMNSLRAEDTAVYYCARSLARTTAMDYWGEGTLVTVSSASTKGPSVFPLAPSSKSTSGGTAALGCLVKDYFPEPVTVSWNSGALTSGVHTFPAVLQSSGLYSLSSVVTVPSSSLGTQTYICNVNHKPSNTKVDKKVEPKSCDKTHTCPPCPAPELLGGDSVMLFPPKPKDTLMISRTPEVTCVVVDVSHEDPEVKFNWYVDGVEVHNAKTKPREEQENSTYRVVSVLTVLHQDWLNGKEYKCKISNKALPAPIEKTISKAKGQPREPQVYTLPPSRDELTKNQVSLTCLVKGFYPSDIAVEWESNGQPENNYKTTPPVLDSDGSFFLYSKLTVDKSRWQQGNVFSCSVMHEALHNHYTQKSLSLSP light: not shown |
| 0.0174 fold of IL6R-G1d/IL6R-L | 0.028 fold of IL6R-G1d/IL6R-L | 0.01 fold of IL6R-G1d/IL6R-L | 2.13 fold of IL6R-G1d/IL6R-L | 0.006 fold of IL6R-G1d/IL6R-L | 18.1 % of IL6R-G1d/IL6R-L | 112 % of IL6R-G1d/IL6R-L |  |  |  |  |  | IL6R-P602/IL6R-L (antibody, human IgG1, kappa) heavy: QVQLQESGPGLVKPSETLSLTCAVSGHSISHDHAWSWVRQPPGEGLEWIGFISYSGITNYNPSLQGRVTISRDNSKNTLYLQMNSLRAEDTAVYYCARSLARTTAMDYWGEGTLVTVSSASTKGPSVFPLAPSSKSTSGGTAALGCLVKDYFPEPVTVSWNSGALTSGVHTFPAVLQSSGLYSLSSVVTVPSSSLGTQTYICNVNHKPSNTKVDKKVEPKSCDKTHTCPPCPAPELLGGDSVMLFPPKPKDTLMISRTPEVTCVVVDVSHEDPEVKFNWYVDGVEVHNAKTKPREEVENSTYRVVSVLTVLHQDWLNGKEYKCKVSNKALPAPIEKTISKAKGQPREPQVYTLPPSRDELTKNQVSLTCLVKGFYPSDIAVEWESNGQPENNYKTTPPVLDSDGSFFLYSKLTVDKSRWQQGNVFSCSVMHEALHNHYTQKSLSLSP light: not shown |
|  |  |  |  |  | 10.1 % of IL6R-G1d/IL6R-L | 79.7 % of IL6R-G1d/IL6R-L |  |  |  |  |  | IL6R-P663/IL6R-L (antibody, human IgG1, kappa) heavy: QVQLQESGPGLVKPSETLSLTCAVSGHSISHDHAWSWVRQPPGEGLEWIGFISYSGITNYNPSLQGRVTISRDNSKNTLYLQMNSLRAEDTAVYYCARSLARTTAMDYWGEGTLVTVSSASTKGPSVFPLAPSSKSTSGGTAALGCLVKDYFPEPVTVSWNSGALTSGVHTFPAVLQSSGLYSLSSVVTVPSSSLGTQTYICNVNHKPSNTKVDKKVEPKSCDKTHTCPPCPAPELLGGDSVFLFPPKPKDTLMISRTPEVTCVVVDVSHEDPEVKFNWYVDGVEVHNAKTKPREEQDNATYRVVSVLTVLHQDWLNGKEYKCKVSNKALPHPIEKTISKAKGQPREPQVYTLPPSRDELTKNQVSLTCLVKGFYPSDIAVEWESNGQPENNYKTTPPVLDSDGSFFLYSKLTVDKSRWQQGNVFSCSVMHEALHNHYTQKSLSLSP light: not shown |
